Here are results for six sequences from the supplement of paper PMC5998384.

For data set [1], the system named is HeLa Kyoto. As to the kind of experiment: solubility in G1/S (NP-40 vs SDS abundance) (log2 ratio); higher = more soluble. The note with it: cell cycle stage: G1/S.
The subject of data set [2] is HeLa Kyoto. As to the kind of experiment: melting temperature (median over replicates), in situ; higher = more thermally stable.
For data set [3], the system named is HeLa Kyoto. The experiment in a line: solubility change mitosis vs G1/S (difference of NP-40 vs SDS log2 ratios) (log2 ratio difference); higher = more soluble in mitosis.
Data set [4] concerns HeLa Kyoto. As to the kind of experiment: thermal stability score vs G1/S (z-score of summed log2 fold changes over temperatures); higher = more thermally stable than in G1/S.
Setting [5] is: cell cycle stage: early G1 (4.5 h after nocodazole release).
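Throughout, for melting temperature (median over replicates), in situ: HeLa Kyoto cells synchronized by double thymidine or nocodazole block, proteins quantified by TMT10plex mass spectrometry, three independent biological replicates.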
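Throughout, for solubility change mitosis vs G1/S (difference of NP-40 vs SDS log2 ratios): synchronized HeLa Kyoto cells (double thymidine block for G1/S, nocodazole release for mitosis), protein amounts in NP-40 versus SDS lysates quantified by mass spectrometry, three biological replicates.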
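Throughout, for solubility in G1/S (NP-40 vs SDS abundance): HeLa Kyoto cells arrested at G1/S by double thymidine block, proteins quantified by TMT10plex mass spectrometry in mild NP-40 versus SDS extracts, three biological replicates.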
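Throughout, for thermal stability score vs G1/S (z-score of summed log2 fold changes over temperatures): synchronized HeLa Kyoto cells, proteins quantified by TMT10plex mass spectrometry, three biological replicates, mitosis taken 0.5 h after nocodazole release, G1/S directly after double thymidine block.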

Regarding “MAGPVSLRDLLMGASAWMGSESPGGSPTEGGGSAAGGPEPPWREDEICVVGIFGKTALRLNSEKFSLVNTVCDRQVFPLFRHQDPGDPGPGIRTEAGAVGEAGGAEDPGAAAGGSVRGSGAVAEGNRTEAGSQDYSLLQAYYSQESKVLYLLLTSICDNSQLLRACRALQSGEAGGGLSLPHAEAHEFWKHQEKLQCLSLLYLFSVCHILLLVHPTCSFDITYDRVFRALDGLRQKVLPLLKTAIKDCPVGKDWKLNCRPCPPRLLFLFQLNGALKVEPPRNQDPAHPDKPKKHSPKRRLQHALEDQIYRIFRKSRVLTNQSINCLFTVPANQAFVYIVPGSQEEDPVGMLLDQLRSHCTVKDPESLLVPAPLSGPRRYQVMRQHSRQQLSFHIDSSSSSSSGQLVDFTLREFLWQHVELVLSKKGFDDSVGRNPQPSHFELPTYQKWISAASKLYEVAIDGKEEDLGSPTGELTSKILSSIKVLEGFLDIDTKFSENRCQKALPMAHSAYQSNLPHNYTMTVHKNQLAQALRVYSQHARGPAFHKYAMQLHEDCYKFWSNGHQLCEERSLTDQHCVHKFHSLPKSGEKPEADRNPPVLYHNSRARSTGACNCGRKQAPRDDPFDIKAANYDFYQLLEEKCCGKLDHINFPVFEPSTPDPAPAKNESSPAPPDSDADKLKEKEPQTQGESTSLSLALSLGQSTDSLGTYPADPQAGGDNPEVHGQVEVKTEKRPNFVDRQASTVEYLPGMLHSNCPKGLLPKFSSWSLVKLGPAKSYNFHTGLDQQGFIPGTNYLMPWDIVIRTRAEDEGDLDTNSWPAPNKAIPGKRSAVVMGRGRRRDDIARAFVGFEYEDSRGRRFMCSGPDKVMKVMGSGPKESALKALNSDMPLYILSSSQGRGLKPHYAQLMRLFVVVPDAPLQIILMPQVQPGPPPCPVFYPEKQEITLPPDGLWVLRFPYAYVTERGPCFPPKENVQLMSYKVLRGVLKAVTQ [SMG8]”, the “solubility in G1/S (log2)” value in the data set on HeLa Kyoto [1] worked out at 0.118. Besides, the melting temperature was found to be 49.4 °C with HeLa Kyoto [2] (cell cycle stage: G1/S) and 48.5 °C in the data set with HeLa Kyoto [2] (cell cycle stage: mitosis). Further, the “solubility change mitosis (log2)” value in the data set on HeLa Kyoto [3] is -0.0473. Besides, the thermal stability score stood at 0.364 in the data set with HeLa Kyoto [4] (setting [5]) and 0.79 in the data set on HeLa Kyoto [4] (cell cycle stage: mitosis).

On to “MAGSEQQRPRRRDDGDSDAAAAAAAPLQDAELALAGINMLLNNGFRESDQLFKQYRNHSPLMSFGASFVSFLNAMMTFEEEKMQLACDDLKTTEKLCESEEAGVIETIKNKIKKNVDVRKSAPSMVDRLQRQIIIADCQVYLAVLSFVKQELSAYIKGGWILRKAWKIYNKCYLDINALQELYQKKLTEESLTSDAANDNHIVAEGVSEESLNRLKGAVSFGYGLFHLCISMVPPNLLKIINLLGFPGDRLQGLSSLMYASESKDMKAPLATLALLWYHTVVRPFFALDGSDNKAGLDEAKEILLKKEAAYPNSSLFMFFKGRIQRLECQINSALTSFHTALELAVDQREIQHVCLYEIGWCSMIELNFKDAFDSFERLKNESRWSQCYYAYLTAVCQGATGDVDGAQIVFKEVQKLFKRKNNQIEQFSVKKAERFRKQTPTKALCVLASIEVLYLWKALPNCSFPNLQRMSQACHEVDDSSVVGLKYLLLGAIHKCLGNSEDAVQYFQRAVKDELCRQNNLYVQPYACYELGCLLLDKPETVGRGRALLLQAKEDFSGYDFENRLHVRIHAALASLRELVPQ [TTC39C]”, for which the “solubility in G1/S (log2)” value in the data set on HeLa Kyoto [1] is -0.0737. Moreover, the melting temperature with HeLa Kyoto [2] (cell cycle stage: G1/S) was 53.6 °C; in the data set with HeLa Kyoto [2] (cell cycle stage: mitosis) it was 52.6 °C. Further, the “solubility change mitosis (log2)” value with HeLa Kyoto [3] was -0.00412. The thermal stability score with HeLa Kyoto [4] (setting [5]) is -1.01; in the data set with HeLa Kyoto [4] (cell cycle stage: mitosis), -2.55.

For “MAGSRLPRQLFLQGVAAVFMFAFASLYTQIPGLYGPEGILPARRTLRPQGKGRWQQLWETPTLLWEAPRLGLDTAQGLELLSLLGALVALGALLLSPLRHPVIYLLLWAAYLSACQVGQVFLYFQWDSLLLETGFLAVLVAPLRPASHRKEAPQGRQAGALPHEDLPFWLVRWLLFRLMFASGVVKLTSRCPAWWGLTALTYHYETQCLPTPAAWFAHHLPVWLHKLSVVATFLIEIAVPPLFFAPIRRLRLAAFYSQVLLQVLIIITGNYNFFNLMTLVLTTALLDDQHLAAEPGHGSRKKTATSWPKALLATLSLLLELAVYGLLAYGTVHYFGLEVDWQQRTIHSRTTFTFHQFSQWLKTLTLPTVWLGVASLVWELLSALWRWTQVRGWLRKLSAVVQLSLVGTATVALFLISLVPYSYVEPGTHGRLWTGAHRLFGAVEHLQLANSYGLFRRMTGLGGRPEVVLEGSYDGHHWTEIEFMYKPGNLSRPPPVVVPHQPRLDWQMWFAALGPHTHSPWFTSLVLRLLQGKEPVIRLVQSQVARYPFHKQPPTYVRAQRYKYWFSQPGEQGQWWRRQWVEEFFPSVSLGDPTLETLLRQFGLQEKSPPRTRSANSTLAQALHWTRSQLSPLEAPALLWGLLMAVGAVRFVQALLAPCSLRSSPLAPVSGEKRRPASQKDSGAASEQATAAPNPCSSSSRTTRRKK [LMF2]”, the “solubility in G1/S (log2)” value in the data set with HeLa Kyoto [1] is -0.171. In addition, the melting temperature in the data set on HeLa Kyoto [2] (cell cycle stage: G1/S) was found to be 51.9 °C; in the data set with HeLa Kyoto [2] (cell cycle stage: mitosis) it was 52.8 °C. Moreover, the “solubility change mitosis (log2)” value in the data set on HeLa Kyoto [3] is -0.0691. Further, the thermal stability score was -0.462 in the data set on HeLa Kyoto [4] (setting [5]) and -1.11 in the data set with HeLa Kyoto [4] (cell cycle stage: mitosis).

With “MAGSVADSDAVVKLDDGHLNNSLSSPVQADVYFPRLIVPFCGHIKGGMRPGKKVLVMGIVDLNPESFAISLTCGDSEDPPADVAIELKAVFTDRQLLRNSCISGERGEEQSAIPYFPFIPDQPFRVEILCEHPRFRVFVDGHQLFDFYHRIQTLSAIDTIKINGDLQITKLG [LGALSL]”, the “solubility in G1/S (log2)” value in the data set on HeLa Kyoto [1] was determined as 0.36. Moreover, the melting temperature in the data set on HeLa Kyoto [2] (cell cycle stage: G1/S) stood at 53.3 °C; with HeLa Kyoto [2] (cell cycle stage: mitosis), 54 °C. Also, in the data set on HeLa Kyoto [3], the “solubility change mitosis (log2)” value is -0.16. The values for the thermal stability score in the data set on HeLa Kyoto [4] (setting [5]) and in the data set with HeLa Kyoto [4] (cell cycle stage: mitosis) were 0.0977 and -0.222, respectively.

Turning to “MAGSYPEGAPAILADKRQQFGSRFLSDPARVFHHNAWDNVEWSEEQAAAAERKVQENSIQRVCQEKQVDYEINAHKYWNDFYKIHENGFFKDRHWLFTEFPELAPSQNQNHLKDWFLENKSEVCECRNNEDGPGLIMEEQHKCSSKSLEHKTQTPPVEENVTQKISDLEICADEFPGSSATYRILEVGCGVGNTVFPILQTNNDPGLFVYCCDFSSTAIELVQTNSEYDPSRCFAFVHDLCDEEKSYPVPKGSLDIIILIFVLSAVVPDKMQKAINRLSRLLKPGGMVLLRDYGRYDMAQLRFKKGQCLSGNFYVRGDGTRVYFFTQEELDTLFTTAGLEKVQNLVDRRLQVNRGKQLTMYRVWIQCKYCKPLLSSTS [METTL2B]”, in the data set with HeLa Kyoto [1], the “solubility in G1/S (log2)” value stood at 0.19. In addition, the melting temperature with HeLa Kyoto [2] (cell cycle stage: G1/S) came to 48.6 °C; in the data set with HeLa Kyoto [2] (cell cycle stage: mitosis) it was 48.9 °C. For the same sequence, the “solubility change mitosis (log2)” value in the data set with HeLa Kyoto [3] was -0.231. Further, the thermal stability score is -0.391 in the data set on HeLa Kyoto [4] (setting [5]) and 1.29 with HeLa Kyoto [4] (cell cycle stage: mitosis).

“MAGYKPVAIQTYPILGEKITQDTLYWNNYKTPVQIKEFGAVSKVDFSPQPPYNYAVTASSRIHIYGRYSQEPIKTFSRFKDTAYCATFRQDGRLLVAGSEDGGVQLFDISGRAPLRQFEGHTKAVHTVDFTADKYHVVSGADDYTVKLWDIPNSKEILTFKEHSDYVRCGCASKLNPDLFITGSYDHTVKMFDARTSESVLSVEHGQPVESVLLFPSGGLLVSAGGRYVKVWDMLKGGQLLVSLKNHHKTVTCLCLSSSGQRLLSGSLDRKVKVYSTTSYKVVHSFDYAASILSLALAHEDETIVVGMTNGILSVKHRKSEAKKESLPRRRRPAYRTFIKGKNYMKQRDDILINRPAKKHLELYDRDLKHFRISKALDRVLDPTCTIKTPEITVSIIKELNRRGVLANALAGRDEKEISHVLNFLIRNLSQPRFAPVLINAAEIIIDIYLPVIGQSPVVDKKFLLLQGLVEKEIDYQRELLETLGMMDMLFATMRRKEGTSVLEHTSDGFPENKKIES [UTP15]”: the “solubility in G1/S (log2)” value in the data set with HeLa Kyoto [1] was -1.23. The melting temperature is 52.6 °C with HeLa Kyoto [2] (cell cycle stage: G1/S) and 50.9 °C in the data set with HeLa Kyoto [2] (cell cycle stage: mitosis). Besides, in the data set on HeLa Kyoto [3], the “solubility change mitosis (log2)” value was determined as 0.558. For the same sequence, the thermal stability score in the data set with HeLa Kyoto [4] (setting [5]) is -0.279; in the data set with HeLa Kyoto [4] (cell cycle stage: mitosis), -3.5.
